For 2 molecules, Kd results are on record in patent US20150368316A1 (ALBERT EINSTEIN COLLEGE OF MEDICINE OF YESHIVA UNIVERSITY, published 2015).

Assay in all cases: Kd from fitting (SPR)
In one assay the target is T1, mouse PD-L2-Ig (mouse, UniProt Q9WUL5 20-219).
T1 construct: also called mPD-L2-Ig; not shown: Ig part of the fusion
T1 sequence (looked up): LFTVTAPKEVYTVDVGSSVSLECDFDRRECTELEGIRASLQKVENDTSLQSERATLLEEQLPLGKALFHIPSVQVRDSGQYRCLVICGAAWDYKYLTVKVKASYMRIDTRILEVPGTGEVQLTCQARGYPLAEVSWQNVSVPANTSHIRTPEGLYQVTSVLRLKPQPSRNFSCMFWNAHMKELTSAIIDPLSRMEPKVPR

The target in assay [1] is T2, human PD-L2-Ig (immobilized) (human, UniProt Q9BQ51 20-219).
T2 construct: also called huPD-L2; huPD-L2-Ig; not shown: Ig part of the fusion
T2 sequence (looked up): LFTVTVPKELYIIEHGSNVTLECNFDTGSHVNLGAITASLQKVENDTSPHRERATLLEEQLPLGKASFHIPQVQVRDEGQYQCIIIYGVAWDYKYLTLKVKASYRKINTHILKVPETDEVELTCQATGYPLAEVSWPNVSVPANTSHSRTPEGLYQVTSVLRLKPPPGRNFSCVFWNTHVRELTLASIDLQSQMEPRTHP

The target in assay [2] is T3, human PD-L1-Ig (immobilized) (human, UniProt Q9NZQ7 19-238).
T3 construct: also called huPD-L1; huPD-L1-Ig; not shown: Ig part of the fusion

The target of the next assay is T4, mouse PD-L1-Ig (mouse, UniProt Q9EP73 19-238).
T4 construct: also called mPD-L1-Ig; not shown: Ig part of the fusion

Substitutions are numbered along the chain they refer to.

T3 sequence (Q9NZQ7 19-238): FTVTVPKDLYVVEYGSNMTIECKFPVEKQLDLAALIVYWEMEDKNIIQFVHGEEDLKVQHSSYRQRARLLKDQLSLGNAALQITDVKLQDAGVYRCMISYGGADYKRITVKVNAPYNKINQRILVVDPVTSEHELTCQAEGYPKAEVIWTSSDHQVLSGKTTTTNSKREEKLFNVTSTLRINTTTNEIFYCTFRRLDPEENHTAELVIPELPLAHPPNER
T4 sequence (Q9EP73 19-238): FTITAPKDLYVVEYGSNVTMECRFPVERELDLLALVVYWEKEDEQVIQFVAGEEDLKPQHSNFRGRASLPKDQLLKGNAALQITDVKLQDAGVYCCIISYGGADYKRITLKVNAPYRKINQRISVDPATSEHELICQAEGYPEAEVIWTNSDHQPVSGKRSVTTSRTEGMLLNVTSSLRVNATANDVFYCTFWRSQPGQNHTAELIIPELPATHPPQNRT

B1: mouse PD-1 (wild type) (receptor, UniProt Q02242 34-150, looked up)
chain: SLTFYPAWLTVSEGANATFTCSLSNWSEDLMLNWNRLSPSNQTEKQAAFCNGLSQPVQDARFQIIQLPNRHDFHMNILDTRRNDSGIYLCGAISLHPKAKIEESPGAELVVTERILE
notes: also called m PD-1
On to B1, for which the Kd with mouse PD-L2-Ig amounted to 2800 nM; in assay [1], 10.7 µM; in assay [2] it was 4020 nM.

B2: mouse HA PD-1 (high-affinity mutant) (receptor, UniProt Q02242 34-150, looked up)
chain: B1 chain with A99L
notes: also called m HA PD-1
For the molecule B2, the Kd with mouse PD-L2-Ig turned out to be 470 nM; in assay [1] it was 1.18 µM; in assay [2], 480 nM; in the assay with mouse PD-L1-Ig, 2780 nM.
